Measurements from paper PMC12695660, “Genome-scale CRISPR screens identify PTGES3 as a direct modulator of androgen receptor function in advanced prostate cancer”.
Where a chain is given by its changes, count along the chain named.

Columns and labels:
[1] = target: ARΔNTD (AR DBD-hinge-LBD) (mouse, UniProt P19091 528-899); assay: fluorescence polarization; 1 uM DHT; no PTGES3; apparent Kd only plotted; FP/EMSA: 150 mM NaCl, 20 mM HEPES pH 7.5, 1 mM TCEP, 1 uM DHT, 10% glycerol, 0.05% IGEPAL CA-630, 100 nM DNA; proteins preincubated 30 min on ice at 8 uM; assay temperature not stated. Mass photometry: same buffer at 5 uM, flash diluted into PBS to 10 nM; details: protein: recombinant; chain copies: 2; label: 5'-fluorescein (6-FAM) on sense strand; blunt
Chain of ARΔNTD (AR DBD-hinge-LBD) (P19091 528-899, stated change not applied): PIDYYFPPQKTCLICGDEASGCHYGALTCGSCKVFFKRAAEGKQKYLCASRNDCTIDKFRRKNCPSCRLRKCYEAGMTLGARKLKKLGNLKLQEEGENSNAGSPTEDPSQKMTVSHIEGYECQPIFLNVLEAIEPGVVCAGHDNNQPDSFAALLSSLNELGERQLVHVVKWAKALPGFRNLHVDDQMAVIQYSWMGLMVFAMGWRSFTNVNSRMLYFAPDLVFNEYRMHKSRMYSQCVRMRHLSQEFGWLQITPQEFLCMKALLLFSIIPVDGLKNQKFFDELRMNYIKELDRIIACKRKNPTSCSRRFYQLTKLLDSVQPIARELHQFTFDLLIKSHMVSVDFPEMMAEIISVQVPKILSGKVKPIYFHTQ

[2] = target: ARΔNTD (AR DBD-hinge-LBD);PTGES3 (tagless) (mouse;human, UniProt P19091;Q15185 528-899;1-160, |); assay: fluorescence polarization; 1 uM DHT; equimolar PTGES3; binding stronger than ARΔNTD alone (P=0.0337); FP/EMSA: 150 mM NaCl, 20 mM HEPES pH 7.5, 1 mM TCEP, 1 uM DHT, 10% glycerol, 0.05% IGEPAL CA-630, 100 nM DNA; proteins preincubated 30 min on ice at 8 uM; assay temperature not stated. Mass photometry: same buffer at 5 uM, flash diluted into PBS to 10 nM; details: protein: recombinant;recombinant; tags: ;Smt3 tag cleaved by Ulp1; label: 5'-fluorescein (6-FAM) on sense strand; blunt
Chain of ARΔNTD (AR DBD-hinge-LBD);PTGES3 (tagless) (P19091 528-899, stated change not applied, chain 1 of 2): as the sequence (P19091 528-899, stated change not applied) above
Chain of ARΔNTD (AR DBD-hinge-LBD);PTGES3 (tagless) (Q15185 whole entry, stated change not applied, chain 2 of 2, the tested form may be a part): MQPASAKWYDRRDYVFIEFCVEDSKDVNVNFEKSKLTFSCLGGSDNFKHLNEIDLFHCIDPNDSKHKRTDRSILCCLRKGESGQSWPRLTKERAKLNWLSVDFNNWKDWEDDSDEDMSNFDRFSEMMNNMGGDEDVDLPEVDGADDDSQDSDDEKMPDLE

[3] = target: T1, ARΔNTD (AR DBD-hinge-LBD);Smt3-PTGES3 (mouse;human, UniProt P19091;Q15185 528-899;1-160, |); assay: fluorescence polarization; 1 uM DHT; equimolar Smt3-PTGES3; binding stronger than ARΔNTD alone (P=0.0254); FP/EMSA: 150 mM NaCl, 20 mM HEPES pH 7.5, 1 mM TCEP, 1 uM DHT, 10% glycerol, 0.05% IGEPAL CA-630, 100 nM DNA; proteins preincubated 30 min on ice at 8 uM; assay temperature not stated. Mass photometry: same buffer at 5 uM, flash diluted into PBS to 10 nM; details: protein: recombinant;recombinant; tags: ;N-terminal Smt3; label: 5'-fluorescein (6-FAM) on sense strand; blunt
T1 sequence (P19091 528-899, stated change not applied, chain 1 of 2): as the sequence (P19091 528-899, stated change not applied) above
T1 sequence (Q15185 whole entry, stated change not applied, chain 2 of 2, the tested form may be a part): as the sequence (Q15185 whole entry, stated change not applied, chain 2 of 2, the tested form may be a part) above

[4] = target: T1, ARΔNTD (AR DBD-hinge-LBD);Smt3-PTGES3; assay: mass photometry; Smt3-PTGES3 restricts formation of heterogeneous complexes; FP/EMSA: 150 mM NaCl, 20 mM HEPES pH 7.5, 1 mM TCEP, 1 uM DHT, 10% glycerol, 0.05% IGEPAL CA-630, 100 nM DNA; proteins preincubated 30 min on ice at 8 uM; assay temperature not stated. Mass photometry: same buffer at 5 uM, flash diluted into PBS to 10 nM; details: protein: recombinant;recombinant; tags: ;N-terminal Smt3; blunt
ARDBD;PTGES3 (tagless) = ARDBD;PTGES3 (tagless) (mouse;human, UniProt P19091;Q15185 528-631;1-160, |); assay: EMSA; equimolar PTGES3 augments ARDBD binding; PTGES3 variant (tagless or Smt3) not stated; FP/EMSA: 150 mM NaCl, 20 mM HEPES pH 7.5, 1 mM TCEP, 1 uM DHT, 10% glycerol, 0.05% IGEPAL CA-630, 100 nM DNA; proteins preincubated 30 min on ice at 8 uM; assay temperature not stated. Mass photometry: same buffer at 5 uM, flash diluted into PBS to 10 nM; details: protein: recombinant;recombinant; tags: ;Smt3 tag cleaved by Ulp1; label: 5'-fluorescein (6-FAM) on sense strand; blunt
Chain of ARDBD;PTGES3 (tagless) (P19091 528-631, chain 1 of 2): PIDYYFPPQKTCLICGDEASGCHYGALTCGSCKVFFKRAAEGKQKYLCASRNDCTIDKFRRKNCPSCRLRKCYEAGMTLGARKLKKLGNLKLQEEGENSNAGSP
Chain of ARDBD;PTGES3 (tagless) (Q15185 whole entry, chain 2 of 2): as the sequence (Q15185 whole entry, stated change not applied, chain 2 of 2, the tested form may be a part) above

B1: ARE 36 bp (dsDNA)
DNA 1: TAAAATGTAAACAACGTAGAACATCAGGAACTCCGG
DNA 2: CCGGAGTTCCTGATGTTCTACGTTGTTTACATTTTA
binding result [1]: binds
binding result [2]: binds
binding result [3]: binds

B2: ARE 36 bp, unlabeled (mass photometry) (dsDNA)
DNA 1: B1 DNA 1 with G27T, A29T, A30T
DNA 2: B1 DNA 2 with T7A, T8A, C10A
binding result [4]: binds

B3: Canonical ARE 36 bp (dsDNA)
DNA 1: B1 DNA 1 with G27T, A29T, A30T
DNA 2: B1 DNA 2 with T7A, T8A, C10A
binding result (ARDBD;PTGES3 (tagless)): binds
